Laboratory results reported in patent publication US20160137746A1, “METHODS FOR TREATING HIGH CARDIOVASCULAR RISK PATIENTS WITH HYPERCHOLESTEROLEMIA” (Sanofi Biotechnology, priority 2014, published 2016).

Tested on: high cardiovascular risk patients with hypercholesterolemia
Assay: ODYSSEY LONG TERM: long-term safety and tolerability
[1] = Final analysis, Safety Analysis
[2] = Final analysis, Safety Analysis (N = 1550)
[3] = Safety population, 223 patients, pre-specified analysis
[4] = Safety population, 562 patients, pre-specified analysis
[5] = Safety population, treatment period, pre-specified analysis, 150 Q2W
[6] = TEAE period, pre-specified analysis
[7] = alirocumab patients with two consecutive LDL-C <25 mg/dL (n = 562), pre-specified analysis

Experimental: Safety parameters (adverse events [including adjudicated cardiovascular events], laboratory data, vital signs, and ECG) were assessed throughout the study.
Safety endpoints assessed in this trial were: cardiovascular events; allergic events; local tolerability at injection site; other adverse events (including hemolytic anemia); laboratory tests: urinalysis, hematology (red blood cell count, red blood cell distribution width (RDW), reticulocyte count, hemoglobin, hematocrit, platelets, white blood cell count with differential blood count), standard chemistry (sodium, potassium, chloride, bicarbonate, calcium, phosphorous, urea nitrogen, creatinine, uric acid, total protein, albumin, LDH, γ Glutamyl Transferase [γGT]), Vitamin E (alpha tocopherol) and other Fat Soluble Vitamins, cortisol (and reflexive ACTH levels, as needed, followed by ACTH stimulation test, as needed), Gonadal Hormone Assessments, Hepatitis C antibody, liver panel (ALT, AST, ALP, and total bilirubin), and CPK; vital signs including heart rate and blood pressure; and 12-lead ECG.
The safety population included all randomized patients who received at least one dose or part of a dose of the double-blind IMP.
Safety analyses were descriptive, performed on the safety population according to treatment actually received. The safety analysis focused on the TEAE period defined as the time from the first dose of double-blind injection up to 70 days after the last double-blind injection. TEAE which developed, worsened or became serious or PCSA occurring after the patient's first injection in the open-label extension study (LTS13643) were not considered in the TEAE period. TEAE period was truncated at the common study cut-off date.

Alirocumab: human anti-PCSK9 antibody; HCVR SEQ ID NO:1, LCVR SEQ ID NO:6; CDRs SEQ ID NOs 2/3/4/7/8/10
Alanine aminotransferase >3 times ULN, % [1]: (1.8) %
Alanine aminotransferase >3 times ULN, n/N [1]: 28/1533
Aspartate aminotransferase >3 times ULN, % [1]: (1.4) %
Aspartate aminotransferase >3 times ULN, n/N [1]: 22/1533
Creatine kinase >3 times ULN, % [1]: (3.7) %
Creatine kinase >3 times ULN, n/N [1]: 56/1507
Diabetes in patients with no history of diabetes, % [1]: (1.8) %
Diabetes in patients with no history of diabetes, n/N [1]: 18/994
Worsening of diabetes in patients with history of diabetes, % [1]: (12.9) %
Worsening of diabetes in patients with history of diabetes, n/N [1]: 72/556
Amnesia, % of patients [2]: (0.3) %
Amnesia, No. of patients [2]: 5
CHD death including unknown cause, % of patients [2]: (0.3) %
CHD death including unknown cause, No. of patients [2]: 4
Confusional state, % of patients [2]: (0.3) %
Confusional state, No. of patients [2]: 4
Congestive heart failure requiring hospitalization, % of patients [2]: (0.6) %
Congestive heart failure requiring hospitalization, No. of patients [2]: 9
Fatal and non-fatal ischemic stroke, % of patients [2]: (0.6) %
Fatal and non-fatal ischemic stroke, No. of patients [2]: 9
General allergic reaction events, % of patients [2]: (10.1) %
General allergic reaction events, No. of patients [2]: 156
Hemolytic anemia, No. of patients [2]: 0
Ischemia-driven coronary revascularization procedure, % of patients [2]: (3.1) %
Ischemia-driven coronary revascularization procedure, No. of patients [2]: 48
Local injection site reaction, % of patients [2]: (5.9) %
Local injection site reaction, No. of patients [2]: 91
Memory impairment, % of patients [2]: (0.3) %
Memory impairment, No. of patients [2]: 4
Myalgia, % of patients [2]: (5.4) %
Myalgia, No. of patients [2]: 84
Neurocognitive disorders, % of patients [2]: (1.2) %
Neurocognitive disorders, No. of patients [2]: 18
Neurological events, % of patients [2]: (4.2) %
Neurological events, No. of patients [2]: 65
Non-fatal MI, % of patients [2]: (0.9) %
Non-fatal MI, No. of patients [2]: 14
Ophthalmological events, % of patients [2]: (2.9) %
Ophthalmological events, No. of patients [2]: 35
Positively adjudicated cardiovascular events (including all cardiovascular AEs listed above), % of patients [2]: (4.6) %
Positively adjudicated cardiovascular events (including all cardiovascular AEs listed above), No. of patients [2]: 72
Post hoc analysis of a subgroup of adjudicated MACE, % of patients [2]: (1.7) %
Post hoc analysis of a subgroup of adjudicated MACE, No. of patients [2]: 27
TEAEs leading to death, % of patients [2]: (0.5) %
TEAEs leading to death, No. of patients [2]: 8
TEAEs leading to discontinuation, % of patients [2]: (7.2) %
TEAEs leading to discontinuation, No. of patients [2]: 111
TEAEs, % of patients [2]: (81.0) %
TEAEs, No. of patients [2]: 1255
Treatment-emergent SAEs, % of patients [2]: (18.7) %
Treatment-emergent SAEs, No. of patients [2]: 290
Time to the first calculated LDL-C value <15 mg/dL, mean (SD) [3]: 12.99 (12.43) weeks
Time to the first calculated LDL-C value <15 mg/dL, median [3]: 8.14 weeks
Time to the first calculated LDL-C value <25 mg/dL, mean (SD) [4]: 11.03 (11.51) weeks
Time to the first calculated LDL-C value <25 mg/dL, median [4]: 4.86 weeks
Patients with 2 consecutive calculated LDL-C value <15 mg/dL, % [5]: (14.8%)
Patients with 2 consecutive calculated LDL-C value <15 mg/dL, n/N [5]: 223/1503
Patients with 2 consecutive calculated LDL-C value <25 mg/dL, % [5]: (37.4%)
Patients with 2 consecutive calculated LDL-C value <25 mg/dL, n/N [5]: 562/1503
Cardiovascular death per adjudication [6]: 5 (0.3%) n (%)
Patients with decreased plasma vitamin E levels below the outer limit of normal (31 out of 1461) [6]: 2.1%
SAEs [6]: 255 (16.5%) n (%)
AE of special interest: All adjudicated cardiovascular events, % of patients [7]: 4.3%
AE of special interest: General allergic reaction events, % of patients [7]: 8.0%
AE of special interest: Haemolytic anaemia, % (n) of patients [7]: 0
AE of special interest: Neurocognitive disorders, % of patients [7]: 0.7%
AE of special interest: Neurological events, % of patients [7]: 3.2%
AE of special interest: Ophthalmological events, % of patients [7]: 2.5%
AE of special interest: Treament-emergent local injection site reactions, % of patients [7]: 6.2%
Neurocognitive AE: Amnesia, % (n) of patients [7]: 0
Neurocognitive AE: Any neurocognitive disorder, % of patients [7]: 0.7%
Neurocognitive AE: Confusion postoperative, % (n) of patients [7]: 0
Neurocognitive AE: Confusional state, % of patients [7]: 0.2% (1)
Neurocognitive AE: Dementia, % of patients [7]: 0.2% (1)
Neurocognitive AE: Disorientation, % (n) of patients [7]: 0
Neurocognitive AE: Disturbance in attention, % (n) of patients [7]: 0
Neurocognitive AE: Frontotemporal dementia, % of patients [7]: 0.2% (1)
Neurocognitive AE: Memory impairment, % (n) of patients [7]: 0
Neurocognitive AE: Transient global amnesia, % (n) of patients [7]: 0
TEAE ALT increase, % of patients [7]: 0.7%
TEAE AST increase, % of patients [7]: 0%
TEAE Angina pectoris, % of patients [7]: 1.8% (10)
TEAE Arthralgia, % of patients [7]: 3.2% (18)
TEAE Atrial fibrillation, % of patients [7]: 1.6% (9)
TEAE Back pain, % of patients [7]: 5.0% (28)
TEAE Bronchitis, % of patients [7]: 5.2% (29)
TEAE CPK increase, % of patients [7]: 0.2%
TEAE Cellulitis, % of patients [7]: 1.6% (9)
TEAE Confusion, % of patients [7]: 1.2% (7)
TEAE Constipation, % of patients [7]: 1.6% (9)
TEAE Cough, % of patients [7]: 2.0% (11)
TEAE Depression, % of patients [7]: 1.4% (8)
TEAE Diarrhea, % of patients [7]: 3.9% (22)
TEAE Dizziness, % of patients [7]: 1.4% (8)
TEAE Fall, % of patients [7]: 1.6% (9)
TEAE Fatigue, % of patients [7]: 3.0% (17)
TEAE Gastoenteritis, % of patients [7]: 0.7% (4)
TEAE Headache, % of patients [7]: 1.8% (10)
TEAE Hypertension, % of patients [7]: 2.0% (11)
TEAE Influenza, % of patients [7]: 4.1% (23)
TEAE Injection site reaction, % of patients [7]: 3.6% (20)
TEAE Lower respiratory tract infection (LRTI), % of patients [7]: 2.8% (16)
TEAE Muscle spasms, % of patients [7]: 2.8% (16)
TEAE Musculoskeletal pain, % of patients [7]: 1.4% (8)
TEAE Myalgia, % of patients [7]: 3.0% (17)
TEAE Nasopharyngitis, % of patients [7]: 10.0% (56)
TEAE Nausea, % of patients [7]: 0.9% (5)
TEAE Non-cardiac chest pain, % of patients [7]: 2.0% (11)
TEAE Osteoarthritis, % of patients [7]: 2.1% (12)
TEAE Pain in extremity, % of patients [7]: 2.1% (12)
TEAE Rhinitis, % of patients [7]: 1.2% (7)
TEAE Sinusitis, % of patients [7]: 3.0% (17)
TEAE Type-2 diabetes mellitus, % of patients [7]: 2.5% (14)
TEAE leading to death, % of patients [7]: 0.5% (3)
TEAEs by System-Organ-Class: Blood and lymphatic system disorders, % of patients [7]: 1.6% (9)
TEAEs by System-Organ-Class: Cardiac disorders, % of patients [7]: 7.5% (42)
TEAEs by System-Organ-Class: Ear and labyrinth disorders, % of patients [7]: 1.2% (7)
TEAEs by System-Organ-Class: Eye disorders, % of patients [7]: 6.4% (36)
TEAEs by System-Organ-Class: Gastrointestinal disorders, % of patients [7]: 13.7% (77)
TEAEs by System-Organ-Class: General disorders and administration site conditions, % of patients [7]: 11.0% (62)
TEAEs by System-Organ-Class: Injury, poisoning, and procedural complications, % of patients [7]: 10.5% (59)
